Assay results published in patent US20040248211A1, “ICAM-related protein” (priority 1992, published 2004).
Numbering of substitutions follows the chain as printed.

Assays:
Assay type in all cases: cell-based, human
[1] = tested on: neutrophil binding to ICAM-2; assay: Neutrophil adhesion
Method: (§1) Binding of HL-60 cells, neutrophils, and COS cells expressing. CD11b to the chimeric proteins was assayed as follows. The chimeric fusion proteins were diluted to 20 μg/ml in 0.1 M Na-carbonate/bicarbonate buffer (pH 9.6) and 50 μl was used to coat each well (in triplicate) of an Immulon 4 96-well plate (Dynatech). The plates were incubated overnight at 4° C. and washed three times in PBS. Wells were blocked with 1% human serum albumin (HSA) for one hour at 37° C. and washed three times in PBS. Two hundred μl of RPMI+0.25% HSA (with/without phorbol ester at 10 ng/ml, with/without blocking mAb at 15 μg/ml) was added to each well. ICAM-R antibodies used were ICR-1.1, ICR-8.1, ICR-4.2, ICR-6.2, ICR-9.2, and ICR-19.3. CD11a blocking antibody TS1/22 (ATCC HB202) and CD11b blocking antibodies 44AACB (ATCC HB249) and LM2/1 (ATCC HB204) were also used as well as monoclonal antibodies IC/A4.1 to CD49d (α4) and 22F12C to CD18, both of which were generated using standard hybridoma techniques. […] The adherent cells were quantified by staining with crystal violet (1% solution in 10% ethanol), washing with water and eluting the dye with 66% ethanol in water and measuring the absorbance at 570 nm. In each experiment percent cells bound was calculated using the absorbency values obtained from the CD18 mAb coated well as 100%. […]

[2] = tested on: JY cells (LFA-1) binding to ICAM-R/IgG; assay: JY cell binding to plate-bound ICAM-R/IgG chimeras; conditions: chimera coated at 10 μg/ml
Method: The binding of the lymphoblastoid cell line JY, which expresses LFA-1, to wild type ICAM-R/IgG chimera was examined in the presence and absence of LFA-1 specific antibodies or antibodies specific for either domain 1 or 2 of ICAM-R. ICAM-R chimeras were diluted to 10 μg/ml in 0.1M Na-carbonate/bicarbonate buffer pH 9.6 and used to coat triplicate wells (50 μl/well) of an Immulon 4 96-well plate (Dynatech) overnight at 4° C. Wells were washed three times in PBS and blocked with 1% BSA (in PBS) for 1 hour at 37° C. JY cells were labeled with the fluorescent dye Calcein (Moleculat Probes, Eugene, Oreg.) at 8 μg/ml at 37° C. in serum free RPMI for 20 minutes. Cells were washed with RPMI and resuspended in binding buffer (0.2% HSA in RPMI. Approximately 1×10^5 cells were added to each well containing the binding buffer with or without antibody (20 μg/ml of ICR-2.1, ICR-1.1, ICR-3.1, ICR-5.1, ICR-7.1, ICR-8.1, ICR-4.2, ICR-6.2, ICR-9.2, TS1/22 or 60.3) so that the final volume was 0.35 ml. Plates were incubated at 37° C. in the dark for 45 minutes and input fluorescence was quantitated with a fluorescence reader (Millipore) in a 96-well format. Unbound cells were removed by inverting the plate in 0.1% BSA in PBS for 20 minutes. Bound cells were quantitated by measuring the remaining fluorescence and presented as percent input minus background binding to wells coated with BSA alone.

[3] = tested on: Neutrophil binding to ICAM-R E37/A; assay: Neutrophil adhesion
Method: as §1, with “ICR-19.3.” for “ICR-19.3. CD11a blocking antibody TS1/22 (ATCC HB202) and CD11b blocking antibodies 44AACB (ATCC HB249) and LM2/1 (ATCC HB204) were also used as well as monoclonal antibodies IC/A4.1 to CD49d (α4) and 22F12C to CD18, both of which were generated using standard hybridoma techniques.”
This motif in domain 1 of ICAM-1 is essential for CD11a but not CD11b binding. Consequently, the effect of the alanine substitution at ICAM-R E37 (E37/A) on CD11b binding was evaluated.

[4] = tested on: Neutrophil binding to ICAM-R/His; assay: Neutrophil adhesion
Method: as §1

B1: ICAM-2: chimeric ICAM-2/IgG fusion protein (protein)
chain: KVFEVHVRPKKLAVEPKGSLEVNCSTTCNQPEVGGLETSLDKILLDEQAQWKHYLVSNISHDTVLQCHFTCSGKQESMNSNVSVYQPPRQVILTLQPTLVAVGKSFTIECRVPTVEPLDSLTLFLFRGNETLHYETFGKAAPAPQEATATFNSTADREDGHRNFSCLAVLDLMSRGGNIFHKHSAPKMLEIYEPVSDSQ
modifications: left off: a dimerising Fc or GST
notes: chimeric ICAM-2/IgG fusion protein
neutrophil binding relative to ICAM-1 [1]: approximately 70%

B2: ICAM-R E37/A: ICAM-R/IgG chimera with alanine substitution at E37 (protein)
chain: QEFLLRVEPQNPVLSAGGSLFVNCSTDCPSSEKIALATSLSKELVASGMGWAAFNLSNVTGNSRILCSVYCNGSQITGSSNITVYGLPERVELAPLPPWQPVGQNFTLRCQVEGGSPRTSLTVVLLRWEEELSRQPAVEEPAEVTATVLASRDDHGAPFSCRTELDMQPQGLGLFVNTSAPRQLRTFVLPVTPPRLVAPRFLEVETSWPVDCTLDGLFPASEAQVYLALGDQMLNATVMNHGDTLTATATATARADQEGAREIVCNVTLGGERREARENLTVFSFLGPIVNLSEPTAHEGSTVTVSCMAGARVQVTLDGVPAAAPGQTAQLQLNATESDDGRSFFCSATLEVDGEFLHRNSSVQLRVLYGPKIDRATCPQHLKWKDKTRHVLQCQARGNPYPELRCLKEGSSREVPVGIPFFVNVTHNGTYQCQASSSRGKYTLVVVMDIEAFSSH
modifications: left off: a dimerising Fc or GST
LFA-1 mediated JY cell adhesion to variant ICAM-R/IgG chimera [2]: completely abrogated adhesion of JY cells
neutrophil binding relative to wild type ICAM-R [3]: binding was reduced relative to wild type ICAM-R

B3: ICAM-R/His: histidine-tagged ICAM-R extracellular region fusion protein (protein)
chain: B2 chain with A37E
modifications: left off: small tags and cut ends
notes: histidine-tagged ICAM-R extracellular region fusion protein
neutrophil adhesion to immobilized protein [4]: Neutrophils adhered to immobilized ICAM-R/His
